Reference: patent US20250361268A1, “NOVEL ANTI-INFLAMMATORY PEPTIDE AND USE THEREOF” (NOVACELL TECHNOLOGY INC., priority 2022, published 2025)

T1: formyl peptide receptor 2 (FPR2) (UniProt P25090 1-351, limits assumed)
T1 sequence (looked up): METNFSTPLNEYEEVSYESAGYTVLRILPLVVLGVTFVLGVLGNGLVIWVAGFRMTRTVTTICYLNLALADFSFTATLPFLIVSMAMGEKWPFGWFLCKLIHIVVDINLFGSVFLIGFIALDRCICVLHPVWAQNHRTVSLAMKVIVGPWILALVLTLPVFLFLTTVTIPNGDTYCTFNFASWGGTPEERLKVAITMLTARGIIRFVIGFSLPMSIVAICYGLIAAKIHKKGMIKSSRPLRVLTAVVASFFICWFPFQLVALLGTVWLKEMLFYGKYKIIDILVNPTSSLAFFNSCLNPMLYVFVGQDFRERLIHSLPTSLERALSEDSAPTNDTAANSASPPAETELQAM

T2: FPR1 (UniProt P21462 1-350, limits assumed)
T2 sequence (looked up): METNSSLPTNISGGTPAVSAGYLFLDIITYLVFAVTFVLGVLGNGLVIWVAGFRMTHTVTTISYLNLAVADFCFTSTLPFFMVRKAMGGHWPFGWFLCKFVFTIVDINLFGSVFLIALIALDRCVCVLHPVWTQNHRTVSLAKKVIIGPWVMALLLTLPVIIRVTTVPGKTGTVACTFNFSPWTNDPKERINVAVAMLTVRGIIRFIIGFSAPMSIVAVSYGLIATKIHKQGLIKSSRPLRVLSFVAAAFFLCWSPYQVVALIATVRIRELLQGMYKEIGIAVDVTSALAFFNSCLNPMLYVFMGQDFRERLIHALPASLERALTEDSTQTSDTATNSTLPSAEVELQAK


Columns and labels:
[1] = molecular target: T1, formyl peptide receptor 2 (FPR2); experiment: cell-based or functional assay
FPR1 = molecular target: T2, FPR1; experiment: cell-based or functional assay

Row | Binder | EC50 for [Ca2+] [1] [µM] | EC50 for [Ca2+] (FPR1) [µM]
1 | HMRYKPM (HELM PEPTIDE1{H.M.R.Y.K.P.[dM].[am]}$$$$V2.0; N-terminus assumed; SMILES CSCC[C@H](NC(=O)[C@@H](N)Cc1c[nH]cn1)C(=O)N[C@@H](CCCNC(=N)N)C(=O)N[C@@H](Cc1ccc(O)cc1)C(=O)N[C@@H](CCCCN)C(=O)N1CCC[C@H]1C(=O)N[C@H](CCSC)C(N)=O) [peptide of SEQ ID NO 58] | < 0.01 | > 10
2 | MRYKPM (HELM PEPTIDE1{[CCCCCCCC(=O)[*:2]].M.R.Y.K.P.[dM].[am]}$$$$V2.0; SMILES CCCCCCCC(=O)N[C@@H](CCSC)C(=O)N[C@@H](CCCNC(=N)N)C(=O)N[C@@H](Cc1ccc(O)cc1)C(=O)N[C@@H](CCCCN)C(=O)N1CCC[C@H]1C(=O)N[C@H](CCSC)C(N)=O) [peptide of SEQ ID NO 57] | < 0.01 | > 10
3 | HMRYKPM (HELM PEPTIDE1{[CCCC(=O)[*:2]].H.M.R.Y.K.P.[dM].[am]}$$$$V2.0; SMILES CCCC(=O)N[C@@H](Cc1c[nH]cn1)C(=O)N[C@@H](CCSC)C(=O)N[C@@H](CCCNC(=N)N)C(=O)N[C@@H](Cc1ccc(O)cc1)C(=O)N[C@@H](CCCCN)C(=O)N1CCC[C@H]1C(=O)N[C@H](CCSC)C(N)=O) [peptide of SEQ ID NO 60] | < 0.01 | > 10
4 | MRYKPM (HELM PEPTIDE1{[CCCC(=O)[*:2]].M.R.Y.K.P.[dM].[am]}$$$$V2.0; SMILES CCCC(=O)N[C@@H](CCSC)C(=O)N[C@@H](CCCNC(=N)N)C(=O)N[C@@H](Cc1ccc(O)cc1)C(=O)N[C@@H](CCCCN)C(=O)N1CCC[C@H]1C(=O)N[C@H](CCSC)C(N)=O) [peptide of SEQ ID NO 56] | < 0.01 | > 10

Now from value to binder:

Row | EC50 for [Ca2+] [1] [µM] | EC50 for [Ca2+] (FPR1) [µM] | Binder
5 | < 0.01 | > 10 | RMRYKVM (HELM PEPTIDE1{[ac].R.M.R.Y.K.V.[dM].[am]}$$$$V2.0; SMILES CSCC[C@H](NC(=O)[C@H](CCCNC(=N)N)NC(C)=O)C(=O)N[C@@H](CCCNC(=N)N)C(=O)N[C@@H](Cc1ccc(O)cc1)C(=O)N[C@@H](CCCCN)C(=O)N[C@H](C(=O)N[C@H](CCSC)C(N)=O)C(C)C) [peptide of SEQ ID NO 6]
6 | < 0.01 | > 10 | HMRYKPM (HELM PEPTIDE1{[CCCCCCCC(=O)[*:2]].H.M.R.Y.K.P.[dM].[am]}$$$$V2.0; SMILES CCCCCCCC(=O)N[C@@H](Cc1c[nH]cn1)C(=O)N[C@@H](CCSC)C(=O)N[C@@H](CCCNC(=N)N)C(=O)N[C@@H](Cc1ccc(O)cc1)C(=O)N[C@@H](CCCCN)C(=O)N1CCC[C@H]1C(=O)N[C@H](CCSC)C(N)=O) [peptide of SEQ ID NO 61]
7 | < 0.01 | > 10 | HMRYKPM (HELM PEPTIDE1{[ac].H.M.R.Y.K.P.[dM].[am]}$$$$V2.0; SMILES CSCC[C@H](NC(=O)[C@H](Cc1c[nH]cn1)NC(C)=O)C(=O)N[C@@H](CCCNC(=N)N)C(=O)N[C@@H](Cc1ccc(O)cc1)C(=O)N[C@@H](CCCCN)C(=O)N1CCC[C@H]1C(=O)N[C@H](CCSC)C(N)=O) [peptide of SEQ ID NO 59]
8 | < 0.01 | > 10 | PMRYKPM (HELM PEPTIDE1{P.M.R.Y.K.P.[dM].[am]}$$$$V2.0; N-terminus assumed; SMILES CSCC[C@H](NC(=O)[C@@H]1CCCN1)C(=O)N[C@@H](CCCNC(=N)N)C(=O)N[C@@H](Cc1ccc(O)cc1)C(=O)N[C@@H](CCCCN)C(=O)N1CCC[C@H]1C(=O)N[C@H](CCSC)C(N)=O) [peptide of SEQ ID NO 62]
